Results: patent US20190038707A1

Experiments:
[1] = target: HCN1, hyperpolarization-activated cyclic nucleotide-gated channel pore-forming subunit 1, endogenous in CA1 pyramidal neurons of TRIP8b KO mice (mouse) (UniProt O88704); assay: cell-based or functional assay
[2] = target: HCN channels (mediating Ih) in CA1 pyramidal neurons of TRIP8b KO mice; assay: cell-based or functional assay

Sequence of UniProt O88704 (O88704 whole entry): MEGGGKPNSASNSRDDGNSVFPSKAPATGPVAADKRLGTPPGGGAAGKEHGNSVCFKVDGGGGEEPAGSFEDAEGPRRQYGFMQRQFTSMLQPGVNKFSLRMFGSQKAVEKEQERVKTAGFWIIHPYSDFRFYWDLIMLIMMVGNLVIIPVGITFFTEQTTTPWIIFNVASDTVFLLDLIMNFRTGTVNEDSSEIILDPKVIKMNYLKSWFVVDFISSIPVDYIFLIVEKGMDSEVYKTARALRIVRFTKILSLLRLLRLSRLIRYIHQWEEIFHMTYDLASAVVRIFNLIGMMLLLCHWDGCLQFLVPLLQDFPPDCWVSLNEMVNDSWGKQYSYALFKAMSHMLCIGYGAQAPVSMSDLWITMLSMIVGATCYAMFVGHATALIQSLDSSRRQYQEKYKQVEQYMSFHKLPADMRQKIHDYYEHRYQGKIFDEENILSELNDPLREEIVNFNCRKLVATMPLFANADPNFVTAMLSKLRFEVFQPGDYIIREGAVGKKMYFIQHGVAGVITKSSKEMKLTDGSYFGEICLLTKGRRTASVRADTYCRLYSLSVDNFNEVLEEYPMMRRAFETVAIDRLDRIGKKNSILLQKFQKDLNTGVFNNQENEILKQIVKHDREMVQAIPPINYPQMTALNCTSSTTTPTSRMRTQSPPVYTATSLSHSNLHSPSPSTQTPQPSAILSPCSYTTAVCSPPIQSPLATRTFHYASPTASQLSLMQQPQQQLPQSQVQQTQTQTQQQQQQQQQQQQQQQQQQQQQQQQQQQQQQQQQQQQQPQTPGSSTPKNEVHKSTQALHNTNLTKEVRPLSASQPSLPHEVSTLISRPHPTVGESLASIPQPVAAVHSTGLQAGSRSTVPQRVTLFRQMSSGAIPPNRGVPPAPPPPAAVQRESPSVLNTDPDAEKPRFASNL

Substance	HCN1 staining in the SLM layer of CA1, injected hemisphere scaled by contralateral hemisphere (immunohistochemistry) (fold of uninjected hemisphere) [1]	Ih amplitude, voltage clamp, TRIP8b KO mice [2] [pA/pF]	sag ratio, somatic whole cell recordings, TRIP8b KO mice [2]	HCN1 staining in the SLM of CA1, injected hemisphere relative to uninjected hemisphere (immunohistochemistry) (fold of uninjected hemisphere) [1]	Ih amplitude, somatic voltage clamp recordings, TRIP8b KO mice [2] [pA/pF]	sag ratio (ΔVmax/ΔVsteady-state), whole cell recordings from eGFP positive CA1 pyramidal neurons of TRIP8b KO mice [2]
TRIP8b(1a-4)(TPR3-N13A), expressed from AAV-TRIP8b(N13A)	0.78	0.282	1.11	–	–	–
TRIP8b(1a-4)(Δ58), expressed from AAV-TRIP8b(Δ58)	0.98	0.27	1.09	–	–	–
TRIP8b(1a-4), tetratricopeptide repeat-containing Rab8b interacting protein, isoform comprised of exons 1a, 4 and 5-16, wild type, expressed from AAV-TRIP8b-IRES-eGFP	–	–	–	1.52	0.68	1.27
TRIP8b(Δ58/N13A) double mutant, expressed from AAV-TRIP8b(Δ58/N13A)	0.99	–	–	–	–	–
